Patent publication US20020045208A1

Target: bFGF receptor molecules present on the surface of the B16 cells (mouse)
Experiment: cell-based or functional assay

| Substance | cytotoxic activity on B16 cells (WST-1 viability), IC50 | increase of toxicity against rMLA alone on B16 cells | cytotoxic effect on B16 cells (MTT viability), IC50 | improvement of the IC50 value on B16 cells against bFGF-MLA |
| --- | --- | --- | --- | --- |
| bFGF-MLA fusion protein (basic fibroblast growth factor fused to the N terminus of rMLA) (from UniProt P09038 134-288) | 0.048 µg/mL | > 100 fold |  |  |
| bFGF-MLA/rMLB associated fusion protein (bFGF-MLA coupled to rMLB under co-folding) (from UniProt P09038 134-288) |  |  | 0.01 µg/mL | 5 fold |
